B1: Cytochrome c-551, P00099 (parent)
chain: MKPYALLSLLATGTLLAQGAWAEDPEVLFKNKGCVACHAIDTKMVGPAYKDVAAKFAGQAGAEAELAQRIKNGSQGVWGPIPMPPNAVSDDEAQTLAKWVLSQK

Variants of: B1
Conditions: Pseudomonas aeruginosa (strain ATCC 15692 / DSM 22644 / CIP 104116 / JCM 14847 / LMG 12228 / 1C / PRS 101 / PAO1), pH 5, CD, structure 451C, whole UniProt chain shown

Variant | ddG of mutation (higher = less stable) (50.4 °C, Thermal, HCl 10 mM) [kcal/mol] | Tm (Thermal, HCl) [°C] | change of melting temperature, mutant - wild type (higher = more stable) (Thermal, HCl) [°C] | unfolding enthalpy (van 't Hoff) (Thermal, HCl) [kcal/mol] | ddG of mutation (higher = less stable) (25 °C, GdnHCl, HCl) [kcal/mol] | denaturant m value (25 °C, GdnHCl, HCl) [kcal/mol/M] | denaturant midpoint (higher = more stable) (25 °C, GdnHCl, HCl) [M]
MKPYALLSLLATGTLLAQGAWAEDPEVLFKNKGCVACHAIDTKMVGPAYKDVAAKFAGRAGAEAYLAQRIKNGSQGVWGPIPMPPNAVSDDEAQTLAKWVLSQK [Q59R E65Y] | -0.5 | 54.7 | 4.3 | 46.2 |  |  | 
MKPYALLSLLATGTLLAQGAWAEDPEVLFKNKGCVACHAIDTKMVGPAYKDVAAKYAGQAGAEAYLAQRIKNGSQGVWGPIPMPPNAVSDDEAQTLAKWVLSQK [F56Y E65Y] | -2.4 | 70.7 | 20.3 | 63.7 |  |  | 
MKPYALLSLLATGTLLAQGAWAEDPEVLAKNKGCVACHAIDTKMVGPAYKDVAAKFAGQAGAEAELAQRIKNGSQGVWGPIPMPPNAVSDDEAQTLAKWVLSQK [F29A] | -1.1 | 59.9 | 9.5 | 48.2 |  |  | 
MKPYALLSLLATGTLLAQGAWAEDPEVLAKNKGCMACHAIDTKMVGPAYKDVAAKFAGQAGAEAELAQRIKNGSQGVWGPIPMPPNAVSDDEAQTLAKWVLSQK [F29A V35M] | -1.4 | 62.4 | 12 | 46.7 |  |  | 
MKPYALLSLLATGTLLAQGAWAEDPEVLFKNKGCVACHAIDTKMVGPAYKDVAAKFAGRAGAEAELAQRIKNGSQGVWGPIPMPPNAVSDDEAQTLAKWVLSQK [Q59R] | -0.5 | 54.7 | 4.3 | 51.3 |  |  | 
MKPYALLSLLATGTLLAQGAWAEDPEVLFKNKGCVACHAIDTKMVGPAYKDVAAKYAGRAGAEAELAQRIKNGSQGVWGPIPMPPNAVSDDEAQTLAKWVLSQK [F56Y Q59R] | -1.5 | 62.9 | 12.5 | 54.5 |  |  | 
MKPYALLSLLATGTLLAQGAWAEDPEVLFKNKGCMACHAIDTKMVGPAYKDVAAKFAGQAGAEAELAQRIKNGSQGVWGPIPMPPNAVSDDEAQTLAKWVLSQK [V35M] | -0.4 | 53.6 | 3.2 | 43.8 |  |  | 
MKPYALLSLLATGTLLAQGAWAEDPEVLFKNKGCVACHAIDTKMVGPAYKDVAAKFAGQAGAEAYLAQRIKNGSQGVWGPIPMPPNAVSDDEAQTLAKWVLSQK [E65Y] | -0.6 | 55.5 | 5.1 | 57.4 |  |  | 
MKPYALLSLLATGTLLAQGAWAEDPEVLFKNKGCVACHAIDTKMVGPAYKDVAAKFAGQAGAEAELAQRIKNGSQGVWGPIPMPPNAVSDDEAQTLAKWILSQK [V100I] | -1 | 58.8 | 8.4 | 43.8 | -0.06 | 2.02 | 2.44
MKPYALLSLLATGTLLAQGAWAEDPEVLFKNKGCVACHAIDTKMVGPAYKDVAAKYAGRAGAEAYLAQRIKNGSQGVWGPIPMPPNAVSDDEAQTLAKWVLSQK [F56Y Q59R E65Y] | -2 | 57.9 | 17.5 | 56.4 |  |  | 
MKPYALLSLLATGTLLAQGAWAEDPEVLFKNKGCVACHAIDTKMVGPAYKDVAAKYAGQAGAEAELAQRIKNGSQGVWGPIPMPPNAVSDDEAQTLAKWVLSQK [F56Y] | -1.9 | 66.4 | 16 | 61.2 |  |  | 

Reference: FireProtDB (doi:10.1074/jbc.274.53.37533)
